Test system: F1*sub RNA substrate (template-directed ligation)
Test: fraction ligated after 30 min (ligated reads / total reads); higher = more ligase activity; sequences stand for … in GAGACCGCAACTGAAAAGTTGT…AGTTCTGCACGTAGAAGCAAAAGGC
Conditions: 42 °C
Outline: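 Ribozyme variants were transcribed with T7 from PCR-amplified oligo-pool templates and gel-purified. Ligated and unligated bands, separated on gel, were reverse transcribed with barcoded primers and sequenced on a MiSeq, with core bases filtered at quality ≥20. Fraction ligated per variant was computed as ligated reads divided by total reads.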

First: TATCACTTGTCGTAGACTTTGGATGGGTTGA [3d2003]
Second: TATCACTTGTCGTAGCACTTGGATGGGTTGA [3d2006]
The fraction ligated of the first is higher: 0.814 for the first, 0.741 for the second.

Compared with “TATCACTTGTCGTAGCACTTTGATGGGTTGA [3d2007]”, “TATCACTTGTCGTAGCACTTTGGAGGGTTGA [3d2009]” is lower in fraction ligated: 0.761 for the first, 0.101 for the second.

Compared with “TATCACTTGTCGTAGCACTTTGGATGGGTTA [3d2011]”, “TATCACTTGTCGTAGCACTTTGGATGGGTTG [3d2012]” is higher in fraction ligated: 0.728 for the first, 0.792 for the second.

Going from “TATCACTTGTCGTAGCACTTTGGATGGGTTGA [2d223]” to “TATCACTTGTCGTAGCACTTTGGATGGTTGA [3d2010]”, the fraction ligated falls from 0.823 to 0.171.

Compared with “TATCACTTGTCGTAGCACTTTGGTGGGTTGA [3d2008]”, “TATCACTTGTCGTAGCATTTGGATGGGTTGA [3d2005]” is higher in fraction ligated: 0.0859 for the first, 0.815 for the second.

Going from “TATCACTTGTCGTAGCCTTTGGATGGGTTGA [3d2004]” to “TATCACTTGTCGTGAACTTTGGATGGGTTGA [3d1983]”, the fraction ligated rises from 0.768 to 0.773.

First: TATCACTTGTCGTGACACTTGGATGGGTTGA [3d1986]
Second: TATCACTTGTCGTGACACTTTGATGGGTTGA [3d1987]
The fraction ligated of the first is higher: 0.779 for the first, 0.508 for the second.

Compared with “TATCACTTGTCGTGACACTTTGGAGGGTTGA [3d1989]”, “TATCACTTGTCGTGACACTTTGGATGGGTTA [3d1991]” is higher in fraction ligated: 0.0822 for the first, 0.703 for the second.

Going from “TATCACTTGTCGTGACACTTTGGATGGGTTG [3d1992]” to “TATCACTTGTCGTGACACTTTGGATGGGTTGA [2d221]”, the fraction ligated falls from 0.826 to 0.808.

Going from “TATCACTTGTCGTGACACTTTGGATGGTTGA [3d1990]” to “TATCACTTGTCGTGACACTTTGGTGGGTTGA [3d1988]”, the fraction ligated rises from 0.0934 to 0.135.

Compared with “TATCACTTGTCGTGACATTTGGATGGGTTGA [3d1985]”, “TATCACTTGTCGTGACCTTTGGATGGGTTGA [3d1984]” is lower in fraction ligated: 0.809 for the first, 0.784 for the second.

Going from “TATCACTTGTCGTGCACTTTGGATGGGTTGA [3d1982]” to “TATCACTTGTCTAAAACTTTGGATGGGTTGA [3d1836]”, the fraction ligated rises from 0.783 to 0.789.

Compared with “TATCACTTGTCTAAACACTTGGATGGGTTGA [3d1839]”, “TATCACTTGTCTAAACACTTTGATGGGTTGA [3d1840]” is lower in fraction ligated: 0.776 for the first, 0.753 for the second.

Going from “TATCACTTGTCTAAACACTTTGGAGGGTTGA [3d1842]” to “TATCACTTGTCTAAACACTTTGGATGGGTTA [3d1844]”, the fraction ligated rises from 0.133 to 0.758.

Compared with “TATCACTTGTCTAAACACTTTGGATGGGTTG [3d1845]”, “TATCACTTGTCTAAACACTTTGGATGGTTGA [3d1843]” is lower in fraction ligated: 0.792 for the first, 0.288 for the second.

Compared with “TATCACTTGTCTAAACACTTTGGTGGGTTGA [3d1841]”, “TATCACTTGTCTAAACATTTGGATGGGTTGA [3d1838]” is higher in fraction ligated: 0.116 for the first, 0.841 for the second.

First: TATCACTTGTCTAAACCTTTGGATGGGTTGA [3d1837]
Second: TATCACTTGTCTAACACTTTGGATGGGTTGA [3d1824]
The fraction ligated of the first is lower: 0.789 for the first, 0.8 for the second.

First: TATCACTTGTCTAAGAACTTGGATGGGTTGA [3d1857]
Second: TATCACTTGTCTAAGAACTTTGATGGGTTGA [3d1858]
The fraction ligated of the first is lower: 0.771 for the first, 0.777 for the second.

Going from “TATCACTTGTCTAAGAACTTTGGAGGGTTGA [3d1860]” to “TATCACTTGTCTAAGAACTTTGGATGGGTTA [3d1862]”, the fraction ligated rises from 0.108 to 0.735.

Compared with “TATCACTTGTCTAAGAACTTTGGATGGGTTG [3d1863]”, “TATCACTTGTCTAAGAACTTTGGATGGTTGA [3d1861]” is lower in fraction ligated: 0.782 for the first, 0.166 for the second.

Going from “TATCACTTGTCTAAGAACTTTGGTGGGTTGA [3d1859]” to “TATCACTTGTCTAAGAATTTGGATGGGTTGA [3d1856]”, the fraction ligated rises from 0.162 to 0.794.

Compared with “TATCACTTGTCTAAGACACTGGATGGGTTGA [3d1878]”, “TATCACTTGTCTAAGACACTTGATGGGTTGA [3d1879]” is lower in fraction ligated: 0.787 for the first, 0.708 for the second.

Compared with “TATCACTTGTCTAAGACACTTGGAGGGTTGA [3d1881]”, “TATCACTTGTCTAAGACACTTGGATGGGTTA [3d1883]” is higher in fraction ligated: 0.0594 for the first, 0.701 for the second.

Compared with “TATCACTTGTCTAAGACACTTGGATGGGTTG [3d1884]”, “TATCACTTGTCTAAGACACTTGGATGGTTGA [3d1882]” is lower in fraction ligated: 0.781 for the first, 0.12 for the second.

First: TATCACTTGTCTAAGACACTTGGTGGGTTGA [3d1880]
Second: TATCACTTGTCTAAGACACTTTATGGGTTGA [3d1885]
The fraction ligated of the first is lower: 0.113 for the first, 0.171 for the second.

Going from “TATCACTTGTCTAAGACACTTTGAGGGTTGA [3d1887]” to “TATCACTTGTCTAAGACACTTTGATGGGTTA [3d1889]”, the fraction ligated rises from 0.0527 to 0.162.

First: TATCACTTGTCTAAGACACTTTGATGGGTTG [3d1890]
Second: TATCACTTGTCTAAGACACTTTGATGGTTGA [3d1888]
The fraction ligated of the first is higher: 0.751 for the first, 0.0589 for the second.

Compared with “TATCACTTGTCTAAGACACTTTGGAGGGTTA [3d1896]”, “TATCACTTGTCTAAGACACTTTGGAGGGTTG [3d1897]” is lower in fraction ligated: 0.134 for the first, 0.0676 for the second.

First: TATCACTTGTCTAAGACACTTTGGAGGTTGA [3d1895]
Second: TATCACTTGTCTAAGACACTTTGGATGGGTT [3d1900]
The fraction ligated of the first is lower: 0.095 for the first, 0.747 for the second.

First: TATCACTTGTCTAAGACACTTTGGATGGGTTA [2d206]
Second: TATCACTTGTCTAAGACACTTTGGATGGGTTG [2d207]
The fraction ligated of the first is lower: 0.803 for the first, 0.825 for the second.

First: TATCACTTGTCTAAGACACTTTGGATGGGTTGA [1d11]
Second: TATCACTTGTCTAAGACACTTTGGATGGTTA [3d1898]
The fraction ligated of the first is higher: 0.818 for the first, 0.372 for the second.

Going from “TATCACTTGTCTAAGACACTTTGGATGGTTG [3d1899]” to “TATCACTTGTCTAAGACACTTTGGATGGTTGA [2d205]”, the fraction ligated rises from 0.408 to 0.588.

Compared with “TATCACTTGTCTAAGACACTTTGGGGGTTGA [3d1891]”, “TATCACTTGTCTAAGACACTTTGGTGGGTTA [3d1893]” is lower in fraction ligated: 0.118 for the first, 0.104 for the second.

Going from “TATCACTTGTCTAAGACACTTTGGTGGGTTG [3d1894]” to “TATCACTTGTCTAAGACACTTTGGTGGTTGA [3d1892]”, the fraction ligated rises from 0.0778 to 0.104.

Compared with “TATCACTTGTCTAAGACACTTTGTGGGTTGA [3d1886]”, “TATCACTTGTCTAAGACATTGGATGGGTTGA [3d1871]” is higher in fraction ligated: 0.044 for the first, 0.796 for the second.

Compared with “TATCACTTGTCTAAGACATTTGATGGGTTGA [3d1872]”, “TATCACTTGTCTAAGACATTTGGAGGGTTGA [3d1874]” is lower in fraction ligated: 0.345 for the first, 0.0252 for the second.

Going from “TATCACTTGTCTAAGACATTTGGATGGGTTA [3d1876]” to “TATCACTTGTCTAAGACATTTGGATGGGTTG [3d1877]”, the fraction ligated rises from 0.793 to 0.824.

Compared with “TATCACTTGTCTAAGACATTTGGATGGTTGA [3d1875]”, “TATCACTTGTCTAAGACATTTGGTGGGTTGA [3d1873]” is lower in fraction ligated: 0.137 for the first, 0.0508 for the second.

Going from “TATCACTTGTCTAAGACCTTGGATGGGTTGA [3d1864]” to “TATCACTTGTCTAAGACCTTTGATGGGTTGA [3d1865]”, the fraction ligated falls from 0.762 to 0.732.

First: TATCACTTGTCTAAGACCTTTGGAGGGTTGA [3d1867]
Second: TATCACTTGTCTAAGACCTTTGGATGGGTTA [3d1869]
The fraction ligated of the first is lower: 0.202 for the first, 0.732 for the second.

Going from “TATCACTTGTCTAAGACCTTTGGATGGGTTG [3d1870]” to “TATCACTTGTCTAAGACCTTTGGATGGTTGA [3d1868]”, the fraction ligated falls from 0.755 to 0.269.

First: TATCACTTGTCTAAGACCTTTGGTGGGTTGA [3d1866]
Second: TATCACTTGTCTAAGACTTTGGATGGGTTGA [3d1846]
The fraction ligated of the first is lower: 0.227 for the first, 0.786 for the second.

Going from “TATCACTTGTCTAAGCACTTGGATGGGTTGA [3d1849]” to “TATCACTTGTCTAAGCACTTTGATGGGTTGA [3d1850]”, the fraction ligated falls from 0.766 to 0.724.

Compared with “TATCACTTGTCTAAGCACTTTGGAGGGTTGA [3d1852]”, “TATCACTTGTCTAAGCACTTTGGATGGGTTA [3d1854]” is higher in fraction ligated: 0.128 for the first, 0.712 for the second.

Going from “TATCACTTGTCTAAGCACTTTGGATGGGTTG [3d1855]” to “TATCACTTGTCTAAGCACTTTGGATGGTTGA [3d1853]”, the fraction ligated falls from 0.75 to 0.165.

Compared with “TATCACTTGTCTAAGCACTTTGGTGGGTTGA [3d1851]”, “TATCACTTGTCTAAGCATTTGGATGGGTTGA [3d1848]” is higher in fraction ligated: 0.108 for the first, 0.818 for the second.

First: TATCACTTGTCTAAGCCTTTGGATGGGTTGA [3d1847]
Second: TATCACTTGTCTAGAACTTTGGATGGGTTGA [3d1826]
The fraction ligated of the first is lower: 0.776 for the first, 0.796 for the second.

First: TATCACTTGTCTAGACACTTGGATGGGTTGA [3d1829]
Second: TATCACTTGTCTAGACACTTTGATGGGTTGA [3d1830]
The fraction ligated of the first is higher: 0.796 for the first, 0.739 for the second.

Compared with “TATCACTTGTCTAGACACTTTGGAGGGTTGA [3d1832]”, “TATCACTTGTCTAGACACTTTGGATGGGTTA [3d1834]” is higher in fraction ligated: 0.218 for the first, 0.738 for the second.

Going from “TATCACTTGTCTAGACACTTTGGATGGGTTG [3d1835]” to “TATCACTTGTCTAGACACTTTGGATGGGTTGA [2d195]”, the fraction ligated rises from 0.76 to 0.799.

Compared with “TATCACTTGTCTAGACACTTTGGATGGTTGA [3d1833]”, “TATCACTTGTCTAGACACTTTGGTGGGTTGA [3d1831]” is lower in fraction ligated: 0.361 for the first, 0.195 for the second.

First: TATCACTTGTCTAGACATTTGGATGGGTTGA [3d1828]
Second: TATCACTTGTCTAGACCTTTGGATGGGTTGA [3d1827]
The fraction ligated of the first is higher: 0.814 for the first, 0.737 for the second.

First: TATCACTTGTCTAGCACTTTGGATGGGTTGA [3d1825]
Second: TATCACTTGTCTGACACTTTGGATGGGTTGA [3d1823]
The fraction ligated of the first is lower: 0.754 for the first, 0.77 for the second.

Going from “TATCACTTGTGAAACACTTTGGATGGGTTGA [3d1719]” to “TATCACTTGTGAAGAACTTTGGATGGGTTGA [3d1721]”, the fraction ligated rises from 0.842 to 0.851.

First: TATCACTTGTGAAGACACTTGGATGGGTTGA [3d1724]
Second: TATCACTTGTGAAGACACTTTGATGGGTTGA [3d1725]
The fraction ligated of the first is lower: 0.801 for the first, 0.818 for the second.

“TATCACTTGTGAAGACACTTTGGAGGGTTGA [3d1727]” gave a fraction ligated of 0.0789.
